Laboratory results taken from IntAct's records for PubMed 35512704.

B1: Mothers against decapentaplegic homolog 4 (Homo sapiens), Q13485 (parent)
chain: MDNMSITNTPTSNDACLSIVHSLMCHRQGGESETFAKRAIESLVKKLKEKKDELDSLITAITTNGAHPSKCVTIQRTLDGRLQVAGRKGFPHVIYARLWRWPDLHKNELKHVKYCQYAFDLKCDSVCVNPYHYERVVSPGIDLSGLTLQSNAPSSMMVKDEYVHDFEGQPSLSTEGHSIQTIQHPPSNRASTETYSTPALLAPSESNATSTANFPNIPVASTSQPASILGGSHSEGLLQIASGPQPGQQQNGFTGQPATYHHNSTTTWTGSRTAPYTPNLPHHQNGHLQHHPPMPPHPGHYWPVHNELAFQPPISNHPAPEYWCSIAYFEMDVQVGETFKVPSSCPIVTVDGYVDPSGGDRFCLGQLSNVHRTEAIERARLHIGKGVQLECKGEGDVWVRCLSDHAVFVQSYYLDREAGRAPGDAVHKIYPSAYIKVFDLRQCHRQMQQQAATAQAAAAAQAAAVAGNIPGPGSVGGIAPAISLSAAAGIGVDDLRRLCILRMSFVKGWGPDYPRQSIKETPCWIEIHLHRALQLLDEVLHTMPIADPQPLD
partner: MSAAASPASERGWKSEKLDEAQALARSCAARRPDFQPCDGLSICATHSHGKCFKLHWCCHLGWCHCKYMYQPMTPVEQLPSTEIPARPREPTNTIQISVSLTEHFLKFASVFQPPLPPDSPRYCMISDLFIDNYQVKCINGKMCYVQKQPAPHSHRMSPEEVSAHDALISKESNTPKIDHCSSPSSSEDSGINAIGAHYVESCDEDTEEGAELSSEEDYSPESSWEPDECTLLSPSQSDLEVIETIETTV
B2: Mothers against decapentaplegic homolog 4 (Homo sapiens), Q13485 (parent)
chain: B1 chain
partner: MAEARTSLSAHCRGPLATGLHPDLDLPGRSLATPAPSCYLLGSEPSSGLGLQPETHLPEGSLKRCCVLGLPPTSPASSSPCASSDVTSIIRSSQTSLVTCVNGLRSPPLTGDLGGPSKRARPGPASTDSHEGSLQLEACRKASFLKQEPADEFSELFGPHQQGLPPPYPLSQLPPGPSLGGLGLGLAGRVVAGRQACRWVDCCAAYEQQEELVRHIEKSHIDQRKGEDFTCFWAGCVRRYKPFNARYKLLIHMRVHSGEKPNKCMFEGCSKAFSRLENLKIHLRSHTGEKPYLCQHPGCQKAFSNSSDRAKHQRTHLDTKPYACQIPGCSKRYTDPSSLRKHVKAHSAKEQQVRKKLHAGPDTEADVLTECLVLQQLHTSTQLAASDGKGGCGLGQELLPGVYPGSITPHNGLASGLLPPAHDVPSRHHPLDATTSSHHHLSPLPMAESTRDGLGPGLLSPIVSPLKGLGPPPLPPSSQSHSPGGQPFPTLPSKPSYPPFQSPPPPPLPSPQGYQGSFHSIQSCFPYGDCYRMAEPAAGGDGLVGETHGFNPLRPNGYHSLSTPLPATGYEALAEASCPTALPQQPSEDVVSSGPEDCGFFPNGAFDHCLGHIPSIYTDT
B3: Mothers against decapentaplegic homolog 4 (Homo sapiens), Q13485 (parent)
chain: B1 chain
partner: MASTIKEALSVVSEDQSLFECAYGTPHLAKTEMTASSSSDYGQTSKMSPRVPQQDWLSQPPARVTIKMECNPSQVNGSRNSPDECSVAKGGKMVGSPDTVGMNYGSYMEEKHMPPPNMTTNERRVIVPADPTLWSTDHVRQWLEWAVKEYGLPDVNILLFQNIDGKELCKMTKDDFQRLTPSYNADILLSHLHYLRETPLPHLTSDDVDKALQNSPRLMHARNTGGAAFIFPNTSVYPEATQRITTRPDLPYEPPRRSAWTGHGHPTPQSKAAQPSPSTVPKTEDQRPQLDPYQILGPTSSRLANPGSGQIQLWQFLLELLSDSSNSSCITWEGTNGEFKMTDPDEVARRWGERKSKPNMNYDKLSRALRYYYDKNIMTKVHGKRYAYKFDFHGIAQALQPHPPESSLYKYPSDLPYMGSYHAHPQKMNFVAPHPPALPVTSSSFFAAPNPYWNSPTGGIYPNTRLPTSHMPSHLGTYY
B4: Mothers against decapentaplegic homolog 4 (Homo sapiens), Q13485 (parent)
chain: B1 chain
partner: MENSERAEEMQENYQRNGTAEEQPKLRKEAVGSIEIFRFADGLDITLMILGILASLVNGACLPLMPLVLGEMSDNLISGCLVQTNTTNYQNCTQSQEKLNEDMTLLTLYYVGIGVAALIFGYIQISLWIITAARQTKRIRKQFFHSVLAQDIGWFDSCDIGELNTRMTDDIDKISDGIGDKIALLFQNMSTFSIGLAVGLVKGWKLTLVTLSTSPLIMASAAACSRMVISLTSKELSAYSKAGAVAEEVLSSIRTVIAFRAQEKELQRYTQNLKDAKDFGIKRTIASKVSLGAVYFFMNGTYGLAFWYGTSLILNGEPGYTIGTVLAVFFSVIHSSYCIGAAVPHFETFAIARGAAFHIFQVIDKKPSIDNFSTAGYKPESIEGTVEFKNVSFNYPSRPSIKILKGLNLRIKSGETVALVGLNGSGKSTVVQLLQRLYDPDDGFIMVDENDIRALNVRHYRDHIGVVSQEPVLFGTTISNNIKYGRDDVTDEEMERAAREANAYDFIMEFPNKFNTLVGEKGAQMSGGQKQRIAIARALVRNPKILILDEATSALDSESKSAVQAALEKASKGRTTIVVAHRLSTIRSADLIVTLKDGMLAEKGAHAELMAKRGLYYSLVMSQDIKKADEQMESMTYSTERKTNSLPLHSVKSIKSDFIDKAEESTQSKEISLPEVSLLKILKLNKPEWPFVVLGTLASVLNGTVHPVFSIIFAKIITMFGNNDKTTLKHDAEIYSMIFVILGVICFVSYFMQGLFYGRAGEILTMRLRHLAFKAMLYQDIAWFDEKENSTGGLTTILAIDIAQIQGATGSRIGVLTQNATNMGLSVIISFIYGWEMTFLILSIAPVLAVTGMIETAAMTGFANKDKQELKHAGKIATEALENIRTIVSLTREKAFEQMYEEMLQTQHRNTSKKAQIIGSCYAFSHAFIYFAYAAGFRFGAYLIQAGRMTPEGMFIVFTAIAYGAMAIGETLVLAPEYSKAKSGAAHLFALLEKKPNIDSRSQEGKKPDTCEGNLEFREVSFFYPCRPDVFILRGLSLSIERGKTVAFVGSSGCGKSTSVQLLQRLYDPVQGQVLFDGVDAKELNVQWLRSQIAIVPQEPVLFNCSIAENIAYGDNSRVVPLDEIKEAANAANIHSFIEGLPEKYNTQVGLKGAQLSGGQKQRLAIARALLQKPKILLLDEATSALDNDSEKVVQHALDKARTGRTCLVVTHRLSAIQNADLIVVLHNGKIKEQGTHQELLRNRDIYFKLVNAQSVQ

Variants of: B1
Details: with cc070_human C3orf70, A6NLC5

Row | Variant | effect of a mutation on the interaction
1 | R361C | with no effect

Variants of: B1
Details: with cc070_human C3orf70, A6NLC5
Remark: another data set of the same source

Row | Variant | effect of a mutation on the interaction
2 | R361H | with no effect

Variants of: B2
Details: with glis1_human GLIS1, Q8NBF1

Row | Variant | effect of a mutation on the interaction
3 | G386D | with no effect

Variants of: B2
Details: with glis1_human GLIS1, Q8NBF1
Remark: another data set of the same source

Row | Variant | effect of a mutation on the interaction
4 | R361H | with no effect

Variants of: B2
Details: with glis1_human GLIS1, Q8NBF1
Remark: another data set of the same source

Row | Variant | effect of a mutation on the interaction
5 | D351H | with no effect

Variants of: B3
Details: with erg_human ERG

Row | Variant | effect of a mutation on the interaction
6 | G386D | with no effect

Variants of: B3
Details: with erg_human ERG
Remark: another data set of the same source

Row | Variant | effect of a mutation on the interaction
7 | D351H | with no effect

Variants of: B3
Details: with erg_human ERG
Remark: another data set of the same source

Row | Variant | effect of a mutation on the interaction
8 | R361C | with no effect

Variants of: B3
Details: with erg_human ERG
Remark: another data set of the same source

Row | Variant | effect of a mutation on the interaction
9 | R361H | with no effect

Variants of: B4
Details: with abcb5_human ABCB5, Q2M3G0

Row | Variant | effect of a mutation on the interaction
10 | G386D | with no effect

Variants of: B4
Details: with abcb5_human ABCB5, Q2M3G0
Remark: another data set of the same source

Row | Variant | effect of a mutation on the interaction
11 | R361C | with no effect

Variants of: B4
Details: with abcb5_human ABCB5, Q2M3G0
Remark: another data set of the same source

Row | Variant | effect of a mutation on the interaction
12 | R361H | with no effect

Variants of: B4
Details: with abcb5_human ABCB5, Q2M3G0
Remark: another data set of the same source

Row | Variant | effect of a mutation on the interaction
13 | D351H | with no effect
